Measured values as given in patent US6066472.

Target: myelin basic protein, 32P-labeled on tyrosine residues

dephosphorylation (radioactivity released as inorganic phosphate, percentage of total input): > 30%
Substance: PTPL1 protein tyrosine phosphatase (from UniProt Q12923) (enzyme)
